In patent US20240352121A1 (published 2024):
Numbering of substitutions follows the chain as printed. One block for each binder: values may come before it.

Columns and labels:
[1] = molecular target: human LAIR-1 fused to the zeta chain of CD3, on UT-140 reporter cells (UniProt P20963 31-164); assay: cell binding (flow cytometry)
[2] = molecular target: T1, LAIR-1 (human; form used for the KD not stated) (UniProt Q6GTX8 22-165); assay: kinetic binding; replicate 1
T1 chain: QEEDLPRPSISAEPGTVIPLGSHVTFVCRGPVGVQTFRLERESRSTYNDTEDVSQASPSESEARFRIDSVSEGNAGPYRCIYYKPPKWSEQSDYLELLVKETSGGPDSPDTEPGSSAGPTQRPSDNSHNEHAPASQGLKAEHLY

[3] = molecular target: T1, LAIR-1 (human; form used for the KD not …); assay: kinetic binding; replicate 2
[4] = molecular target: T1, LAIR-1 (human; form used for the KD not …); assay: kinetic binding; replicate 3

EC50 [1]: 0.15 nM
B1: hLAIR-1 mAb-Parent (antibody, V domains shown)
VH: EVQLVESGGGLVQPKGSLKLSCAASGFTFNTNAMYWVRQAPGKGLEWVARIRSKSSNYATYYADSVKDRFTISRDDSQSMLYLQMNNLKTEDTARYYCVRGGSGFFAYWGQGTLVTVSA
VL: DIQMAQSSSSFSVSLGDRVTITCKASEDIYIRLAWYQQKPGNAPRLLISTATSLETGVPSRFSGSGSGKDYTLSITSLQTEDVATYYCQQYWSTPYTFGGGTRLEIK

Kd [2]: 1.25 nM | Kd [3]: 1.16 nM | Kd [4]: 1.95 nM
B2: 11B3 hG1 (antibody, V domains shown)
VH: B1 VH
VL: DIQMAQSSSSFSVSLGDRVTITCKASEDIYIRLAWYQQKPGNAPRLLISTATSLETGVPSRFSGSGSGKDYTLSITSLQTEDVATYYCQQYWSTPYTFGGGTRLEIKR

Kd [2]: 2.38 nM | Kd [4]: 2.34 nM
B3: h11B3 LAIR-1 mAb, Anti-LAIR-1 Variant 6 (h11B3 VL-2 / h11B3 VH-3) (antibody, V domains shown)
VH: B1 VH with K15G, A49G, D64A, D68G, Q78K, S79N, M80T, N87S, R95V, A119S
VL: DIQMTQSPSSLSASLGDRVTITCKASEDIYIRLAWYQQKPGKAPRLLISTATSLETGVPSRFSGSGSGTDYTFTISSLQPEDIATYYCQQYWSTPYTFGGGTRLEIK
